Data from patent publication US20160222079A1 (GENOR BIOPHARMA, published 2016).

T1: GLP-1 receptor (GLP-1R) on the surface of mouse beta pancreatic tumor cells β-TC-6 (mouse, UniProt O35659 22-463)
T1 construct: whole, on cells; Endogenous receptor of the mouse cell line
T1 sequence (looked up): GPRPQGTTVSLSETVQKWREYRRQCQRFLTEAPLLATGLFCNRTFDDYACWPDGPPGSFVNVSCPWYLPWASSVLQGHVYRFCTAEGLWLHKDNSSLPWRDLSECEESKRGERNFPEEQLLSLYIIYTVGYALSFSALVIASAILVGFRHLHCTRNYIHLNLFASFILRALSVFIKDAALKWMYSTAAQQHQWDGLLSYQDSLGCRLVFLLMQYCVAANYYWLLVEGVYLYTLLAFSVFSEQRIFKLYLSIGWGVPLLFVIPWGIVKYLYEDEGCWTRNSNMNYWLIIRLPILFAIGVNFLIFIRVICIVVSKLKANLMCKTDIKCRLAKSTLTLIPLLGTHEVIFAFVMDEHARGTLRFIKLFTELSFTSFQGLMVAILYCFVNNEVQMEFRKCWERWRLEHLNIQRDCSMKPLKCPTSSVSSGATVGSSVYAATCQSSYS


Target: T1, GLP-1 receptor (GLP-1R) on the surface …
Assay: cell ELISA on fixed β-TC-6 cells, anti-human IgG-HRP detection

| binding result | Binder |
| --- | --- |
| binds | GLP-1-Fc-1 fusion protein (Fc fusion, also called GLP-1-Fc (IgG2)) HGEGTFTSDVSSYLEEQAAKEFIAWLVKGGGGGGGSGGGGSGGGGSVECPPCPAPPVAGPSVFLFPPKPKDTLMISRTPEVTCVVVDVSHEDPEVQFNWYVDGVEVHNAKTKPREEQFNSTFRVVSVLTVVHQDWLNGKEYKCAVSNKGLPAPIEKTISKTKGQPREPQVYTLPPSREEMTKNQVSLTCLVKGFYPSDIAVEWESNGQPENNYKTTPPMLDSDGSFFLYSKLTVDKSRWQQGNVFSCSVMHEALHNHYTQKSLSLSPGK |
| binds | GLP-1-Fc-3 fusion protein (Fc fusion, also called GLP-1-Fc (IgG2)) HGEGTFTSDVSSYLEEQAAKEFIAWLVKGGGGGGGSGGGGSGGGGSVECPPCPAPPVAGPSVFLFPPKPKDTLMISRTPEVTCVVVDVSHEDPEVQFNWYVDGVEVHNAKTKPREEQFNSTFRVVSVLTVVHQDWLNGKEYKCKVSNKGLPAPIEKTISKTKGQPREPQVYTLPPSREEMTKNQVSLTCLVKGFYPSDIAVEWESNGQPENNYKTTPPMLDSDGSFFLYSKLTVDKSRWQQGNVFSCSVMHEALHNHYTQKSLSLSPG |
| binds | GLP-1-Fc-2 fusion protein (Fc fusion, also called GLP-1-Fc (IgG2)) HGEGTFTSDVSSYLEEQAAKEFIAWLVKGGGGGGGSGGGGSGGGGSERKCCVECPPCPAPPVAGPSVFLFPPKPKDTLMISRTPEVTCVVVDVSHEDPEVQFNWYVDGVEVHNAKTKPREEQFNSTFRVVSVLTVVHQDWLNGKEYKCKVSNKGLPAPIEKTISKTKGQPREPQVYTLPPSREEMTKNQVSLTCLVKGFYPSDIAVEWESNGQPENNYKTTPPMLDSDGSFFLYSKLTVDKSRWQQGNVFSCSVMHEALHNHYTQKSLSLSPG |
